Reference: patent publication CN117946265A (HISUN BIO PHARMACEUTICAL CO LTD; ZHEJIANG BORUI BIOLOGICAL …, dated 2024)
“And” between values parts separate entries of the source, which are not always exact repeats. Identical values can stand only once.

T1: 人CX3CL1胞外区蛋白 CX3CL1(Q25-Q341)-6xHis (human, UniProt P78423 25-341)
T1 sequence: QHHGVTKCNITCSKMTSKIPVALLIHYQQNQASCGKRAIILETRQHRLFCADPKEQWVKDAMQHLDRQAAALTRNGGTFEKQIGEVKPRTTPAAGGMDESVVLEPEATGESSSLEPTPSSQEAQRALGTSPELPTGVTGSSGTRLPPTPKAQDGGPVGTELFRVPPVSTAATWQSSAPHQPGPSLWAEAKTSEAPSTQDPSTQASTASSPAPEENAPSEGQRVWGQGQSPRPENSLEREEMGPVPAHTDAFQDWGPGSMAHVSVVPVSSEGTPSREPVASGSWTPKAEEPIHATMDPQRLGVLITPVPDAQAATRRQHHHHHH

B1: Tab#1 (antibody, human IgG2, kappa, V domains shown)
VH: QVQLVQSGAEVKKPGASVKVSCKASGYTFTNYYIHWVKQAPGQGLEWIGWIYPGDGSPKFNERFKGRTTLTADKSTNTAYMLLSSLRSEDTAVYFCATGPTDGDYFDYWGQGTTVTVSS
VL: DIQMTQSPSSLSASVGDRVTITCRASGNIHNFLAWYQQKPGKAPKLLIYNEKTLADGVPSRFSGSGSGTDYTLTISSLQPEDFATYFCQQFWSTPYTFGGGTKVEIKR
notes: also called Quetmolimab; CX3CL1阳性对照抗体
B2: HumAb032-4 (antibody, human IgG2, kappa, V domains shown)
VH: EVQLVQSGAEVKKPGATVKISCKASGYTFTDYYMNWVQQAPGKSLEWMGDINPNQGGTSYNQKFKGRVTLTVDKSTSTAYMELSSLRSEDTAVYYCASSGNSYVDYWGQGTTVTVSS
VL: DIQMTQSPSSLSASVGDRVTITCKASQDVSTAVAWYQQKPGKAPKLLLYWASTRHTGVPSRFSGSGSGTDYTLTISSLQPEDFATYYCQQHYSSPYTFGGGTKVEIKR
notes: Full-length humanized IgG2/kappa antibody
B3: HumAb022-4 (antibody, human IgG2, kappa, V domains shown)
VH: EVQLVQSGAEVKKPGATVKISCKASGYTFTDYYMNWVQQAPGKSLEWMGDINPNQGGTNYNQKFKGRVTLTVDKSTSTAYMELSSLRSEDTAVYYCASSGNSYVDYWGQGTTVTVSS
VL: DIQMTQSPSSLSASVGDRVTITCKASQDVSTAVAWYQQKPGKAPKLLLYWASTRHTGVPSRFSGSGSGTDYTLTISSLQPEDFATYYCQQHYSSPYTFGGGTKVEIKR
notes: as for B2
B4: C032 (antibody, human IgG2, kappa, V domains shown)
VH: EVQLQQSGPELVKPGASVKISCKASGYTFTDYYMNWVKQSHGKSLEWIGDINPNNGGTSYNQKFKGKATLTVDKSSSTAYMELRSLTSEDSAVYYCASSGNSYVDYWGQGTTLTVSS
VL: DIVMTQSHKFMSTSVGDRVSITCKASQDVSTAVAWYQQKPGQSPKLLIYWASTRHTGVPDRFTGSGSGTDYTLTISSVQAEDLALYYCQQHYSSPYTFGGGTKLEIKR
notes: Human-mouse chimeric antibody of mAb032 with human IgG2 constant region, expressed in CHOK1; also called 嵌合抗体C032
B5: mAb022 (antibody, V domains shown)
VH: EVQLQQSGPELVKPGASVKISCKASGYTFTDYYMNWVKQSHGKSLEWIGDINPNNGGTNYNQKFKGKATLTVDKSSSTAYMELRSLTSEDSAVFYCASSGNSYVDYWGQGTTLTVSS
VL: DIVMTQSHKFMSTSVGDRVNITCKASQDVSTAVAWYQQKPGQSPKLLIYWASTRHTGVPDRFTGSGSGTDYTLTISSVQAEDLALYYCQQHYSSPYTFGGGTKLEIK
notes: Murine monoclonal antibody purified from hybridoma supernatant; also called 15F7B2
B6: C022 (antibody, human IgG2, kappa, V domains shown)
VH: EVQLQQSGPELVKPGASVKISCKASGYTFTDYYMNWVKQSHGKSLEWIGDINPNNGGTNYNQKFKGKATLTVDKSSSTAYMELRSLTSEDSAVFYCASSGNSYVDYWGQGTTLTVSS
VL: DIVMTQSHKFMSTSVGDRVNITCKASQDVSTAVAWYQQKPGQSPKLLIYWASTRHTGVPDRFTGSGSGTDYTLTISSVQAEDLALYYCQQHYSSPYTFGGGTKLEIKR
notes: Human-mouse chimeric antibody of mAb022 with human IgG2 constant region, expressed in CHOK1; also called 嵌合抗体C022
B7: mAb032 (antibody, V domains shown)
VH: EVQLQQSGPELVKPGASVKISCKASGYTFTDYYMNWVKQSHGKSLEWIGDINPNNGGTSYNQKFKGKATLTVDKSSSTAYMELRSLTSEDSAVYYCASSGNSYVDYWGQGTTLTVSS
VL: DIVMTQSHKFMSTSVGDRVSITCKASQDVSTAVAWYQQKPGQSPKLLIYWASTRHTGVPDRFTGSGSGTDYTLTISSVQAEDLALYYCQQHYSSPYTFGGGTKLEIK
notes: Murine monoclonal antibody purified from hybridoma supernatant; also called 18H6F1
B8: C032QG (antibody, human IgG2, kappa, V domains shown)
VH: EVQLQQSGPELVKPGASVKISCKASGYTFTDYYMNWVKQSHGKSLEWIGDINPNQGGTSYNQKFKGKATLTVDKSSSTAYMELRSLTSEDSAVYYCASSGNSYVDYWGQGTTLTVSS
VL: DIVMTQSHKFMSTSVGDRVSITCKASQDVSTAVAWYQQKPGQSPKLLIYWASTRHTGVPDRFTGSGSGTDYTLTISSVQAEDLALYYCQQHYSSPYTFGGGTKLEIKR
notes: Chimeric IgG2 mutant of C032 removing the NG hot spot of HCDR2 (NG to QG)
B9: C032NA (antibody, human IgG2, kappa, V domains shown)
VH: EVQLQQSGPELVKPGASVKISCKASGYTFTDYYMNWVKQSHGKSLEWIGDINPNNAGTSYNQKFKGKATLTVDKSSSTAYMELRSLTSEDSAVYYCASSGNSYVDYWGQGTTLTVSS
VL: DIVMTQSHKFMSTSVGDRVSITCKASQDVSTAVAWYQQKPGQSPKLLIYWASTRHTGVPDRFTGSGSGTDYTLTISSVQAEDLALYYCQQHYSSPYTFGGGTKLEIKR
notes: Chimeric IgG2 mutant of C032 removing the NG hot spot of HCDR2 (NG to NA)
B10: mAb017 (antibody, V domains shown)
VH: QIQLVQSGPELKKPGETVKISCKASVYTFTEYAMHWVKQAPGKGFKWMGWINTNSGEPTYADDFKGRFAFSLETSASTAYLQINNLKNEDTATYFCGRGRVVGSFDYWGQGTTLTVSS
VL: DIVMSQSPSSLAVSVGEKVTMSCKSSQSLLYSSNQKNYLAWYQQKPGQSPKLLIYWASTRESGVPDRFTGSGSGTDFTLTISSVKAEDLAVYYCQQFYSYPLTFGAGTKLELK
notes: Murine monoclonal antibody purified from hybridoma supernatant; also called 36C7-1G2

Columns and labels:
[1] = molecular target: T1, 人CX3CL1胞外区蛋白 CX3CL1(Q25-Q341)-6xHis; experiment: cell-based or functional assay
[2] = molecular target: T1, 人CX3CL1胞外区蛋白 CX3CL1(Q25-Q341)-6xHis; experiment: cell-based or functional assay; remark: listed apart in the source
[3] = molecular target: T1, 人CX3CL1胞外区蛋白 CX3CL1(Q25-Q341)-6xHis; experiment: FACS competition: antibody blocks huCX3CL1-His binding to CHOK1-hCX3CR1 cells

Binder	抑制细胞迁移活性 IC50 [1]	抑制cAMP活性 IC50 [2]	IC50 [3]	抑制cAMP活性 MAX [2]
B1	19 nM	5.69 nM and 4.07 nM	1.96 nM	–
B2	–	–	1.22 nM	–
B3	0.299 nM	2.69 nM	1.27 nM	100
B4	2.49 nM	3.4 nM	0.731 nM	95.8
B5	7.19 nM	0.8 nM	7.6 nM	105
B6	–	2.41 nM and 3.28 nM	0.885 nM and 1.7 nM	–
B7	8.72 nM	1.07 nM	11.5 nM	115
B8	2.27 nM	3.96 nM	0.811 nM and 1.49 nM	97
B9	4 nM	3.63 nM	0.865 nM	92.5
B10	7.55 nM	0.7 nM	6.1 nM	100
